Measured values as given in patent publication US20070178531A1 (BIOCHECK, published 2007).

Key:
Mouse Id2: Histidine [1] = target: T1, Mouse Id2: Histidine (mouse, UniProt P41136 1-134, limits assumed); experiment: ELISA, Ab 0.005 µg/ml
T1 construct: Fusion protein made in E. coli from vector pGW07; also called m-Id2: His; not shown: His tag
T1 sequence (looked up): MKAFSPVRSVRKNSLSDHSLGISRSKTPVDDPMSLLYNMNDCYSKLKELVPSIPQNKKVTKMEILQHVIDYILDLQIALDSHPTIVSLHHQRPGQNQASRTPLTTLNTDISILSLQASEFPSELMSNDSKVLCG

Mouse Id1: Histidine [2] = target: T2, Mouse Id1: Histidine (mouse, UniProt P20067-2 1-148, limits assumed); experiment: ELISA, Ab 0.005 µg/ml
T2 construct: Fusion protein made in E. coli from vector pGW07; also called m-Id1-His; not shown: His tag
T2 sequence (looked up): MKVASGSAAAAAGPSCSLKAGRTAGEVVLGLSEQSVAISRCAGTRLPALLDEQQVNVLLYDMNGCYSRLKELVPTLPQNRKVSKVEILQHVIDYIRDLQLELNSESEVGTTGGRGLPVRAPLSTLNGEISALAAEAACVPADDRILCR

Human Id1: Histidine [3] = target: T3, Human Id1: Histidine (human, UniProt P41134 1-155, limits assumed); experiment: ELISA, Ab 0.010 µg/ml
T3 construct: Fusion protein made in E. coli from vector pGW07; also called h-Id1: his; not shown: His tag
T3 sequence (looked up): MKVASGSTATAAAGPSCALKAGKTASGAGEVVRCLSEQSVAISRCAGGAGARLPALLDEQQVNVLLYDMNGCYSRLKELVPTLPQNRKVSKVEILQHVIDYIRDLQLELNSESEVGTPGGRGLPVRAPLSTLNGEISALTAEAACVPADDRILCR

Mouse Id2: Histidine [4] = target: T1, Mouse Id2: Histidine; experiment: ELISA, Ab 0.010 µg/ml
Human Id2: Histidine [5] = target: T4, Human Id2: Histidine (human, UniProt Q02363 1-134, limits assumed); experiment: ELISA, Ab 0.010 µg/ml
T4 construct: Fusion protein made in E. coli from vector pGW07; also called h-Id2: His; not shown: His tag
T4 sequence (looked up): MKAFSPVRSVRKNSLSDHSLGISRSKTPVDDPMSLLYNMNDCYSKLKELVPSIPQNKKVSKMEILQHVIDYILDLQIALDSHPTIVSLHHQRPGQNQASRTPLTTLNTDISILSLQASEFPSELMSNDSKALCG

Mouse Id3: Histidine [6] = target: T5, Mouse Id3: Histidine (mouse, UniProt P41133 1-119); experiment: ELISA, Ab 0.010 µg/ml
T5 construct: Fusion protein made in E. coli from vector pGW07; also called m-Id3: His; Mouse Id3 (coated wells); not shown: His tag
T5 sequence: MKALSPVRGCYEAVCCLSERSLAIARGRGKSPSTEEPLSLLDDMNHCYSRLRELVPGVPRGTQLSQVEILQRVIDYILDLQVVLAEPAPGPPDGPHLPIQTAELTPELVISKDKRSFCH

Human Id3: Histidine [7] = target: T6, Human Id3: Histidine (human, UniProt Q02535 1-119 at identity 1.00)); experiment: ELISA, Ab 0.010 µg/ml
T6 construct: Fusion protein made in E. coli from vector pGW07; also called h-Id3: His; Human Id3 (coated wells); not shown: His tag
T6 chain: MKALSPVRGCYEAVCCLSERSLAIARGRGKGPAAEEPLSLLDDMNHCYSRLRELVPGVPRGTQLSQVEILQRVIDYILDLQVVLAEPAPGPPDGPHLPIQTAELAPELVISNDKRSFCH

Mouse Id1: Histidine [8] = target: T2, Mouse Id1: Histidine; experiment: ELISA, Ab 0.010 µg/ml
Mouse Id1: Histidine [9] = target: T2, Mouse Id1: Histidine; experiment: ELISA, Ab 0.050 µg/ml
Human Id1: Histidine [10] = target: T3, Human Id1: Histidine; experiment: ELISA, positive control (stated to be BCH-4/6-1) 0.50 µg/ml
Procedure: (§1) 1. Dispense 100 μL of antibody diluent, diluted rabbit monoclonal human Id3, and mouse/human Id3 hybridoma supernatants into appropriate wells. […] 2. Incubate at room temperature with mechanical shaking at 750 rpm for 90 minutes. [0165] 3. Remove the incubation mixture by flicking plate content into an appropriate waste container followed by rinsing the wells 5 times with distilled water. [0166] 4. Strike the wells sharply onto absorbent paper or paper towels to remove all residual water droplets. [0167] 5. Dispense 100 μL of 1:50,000 Goat Anti-Rabbit IgG-HRP Conjugate Reagent into each well. Gently mix for 5 seconds. [0168] 6. Incubate at room temperature with mechanical shaking at 750 rpm for 90 minutes. [0169] 7. Repeat procedures 3 and 4. [0170] 8. Dispense 100 μL of TMB Reagent into each well. Gently mix for 5 seconds. [0171] 9. Incubate at room temperature with mechanical shaking at 750 rpm for 20 minutes. […] 10. Add 100 μL of Stop Solution (1N HCl) into each well. [0173] 11. Gently mix for 10 seconds to ensure a complete mixing. [0174] 12. Read optical density at A450 nm.
(§2) The materials and method are the same as those described in Example 9 except the following.
(§3) Rabbit monoclonal anti-mouse Id3, hybridoma supernatant was used as the test antibody. Protein G purified, rabbit monoclonal anti-mouse/human Id3 antibody, BCH-4/6-1, 0.92 mg/ml in 0.25% BSA was used as positive controls.

Mouse Id2: Histidine [11] = target: T1, Mouse Id2: Histidine; experiment: as above
Procedure: as §1, §2, §3

Human Id2: Histidine [12] = target: T4, Human Id2: Histidine; experiment: as above
Procedure: as §1, §2, §3

Mouse Id3: Histidine [13] = target: T5, Mouse Id3: Histidine; experiment: as above
Procedure: as §1, §2, §3

Human Id3: Histidine [14] = target: T6, Human Id3: Histidine; experiment: as above
Procedure: as §1, §2, §3

Mouse Id1: Histidine [15] = target: T2, Mouse Id1: Histidine; experiment: as above
Procedure: as §1, §2, §3

B1: rabbit monoclonal anti-mouse/human Id3, clone #BCH-4/#6-1 (antibody, V domains shown)
VH: QSVEESGGRLVTPGTPLTLTCTASGFSLSNVYIHWVRQAPGKGLEWIGYISDGDTARYATWAKGRFTISKTSSTTVNLKMTSLTTEDTATYFCARQGFNIWGPGTLVTVSL
VL: AVLTQTPSPVSAAVGGTVSISCQSSQSVWNNNWLSWFQQKPGQPPKLLIYETSKLESGVPSRFKGSGSGTQFTLTISDVQCDDAATYYCLGGYWTTSDNNVFGGGTEVVVK
notes: Rabbit IgG from a rabbit hybridoma; also called m/h Id3 MoAb 6-1
A450 (Mouse Id2: Histidine [1]): 0.073 A450 | A450 (Mouse Id1: Histidine [2]): 0.076 A450 | A450 (Human Id1: Histidine [3]): 0.078 A450 | A450 (Mouse Id2: Histidine [4]): 0.071 A450 | A450 (Human Id2: Histidine [5]): 0.071 A450 | A450 (Mouse Id3: Histidine [6]): 0.53 A450 | A450 (Human Id3: Histidine [7]): 0.48 A450 | A450 (Mouse Id1: Histidine [8]): 0.079 A450 | A450 (Mouse Id1: Histidine [9]): 0.093 A450 | A450 (Human Id1: Histidine [10]): 2.13 A450 | A450 (Mouse Id2: Histidine [11]): 3.1 A450 | A450 (Human Id2: Histidine [12]): 3.23 A450 | A450 (Mouse Id3: Histidine [13]): 3.18 A450 | A450 (Human Id3: Histidine [14]): 2.83 A450 | A450 (Mouse Id1: Histidine [15]): 2.2 A450
